The EC50 is the concentration needed to bring the measured effect to its halfway point. Lower therefore signals greater potency.

This note sets out measurements from patent US20070060518A1 (MANNKIND, published 2007).

The target of assay [1] is T1, HLA-A*0201 on T2 cells (human).
T1 construct: whole, on cells; also called HLA-A2
Kind of assay: T2 cell stability assay, flow cytometry. (A flow cytometer gives signals particle by particle.)

In assay [2] the target is T1, HLA-A*0201 on T2 cells. Kind of assay: T2 cell binding assay, flow cytometry.
The target of assay [3] is T2, HLA-A*0201 class I monomer on avidin-coated plates (iTopia Epitope Discovery System) (human).
T2 construct: Bought kit (Beckman Coulter); also called A0201 restricted MHC Class 1 molecules; MHC monomer
Put plainly: iTopia off-rate assay (FIG. 21).
Protocol: (§1) Avidin-coated microtiter plates containing class I monomer loaded with a so-called placeholder peptide were used to evaluate peptide binding, affinity and off-rate. […] Assay buffers, anti-MHC-FITC mAb and beta2-microglobulin and control peptides were also supplied with the kits. Binding Assay:
(§2) The plates were then incubated on the allele-specific monomer plates at 37° C. The plates were measured at multiple time points (0, 0.5, 1, 1.5, 2, 4, 6 and 8 hrs) for relative fluorescence intensity. The time required for 50% of the peptide to dissociate from the MHC monomer is defined as the T1/2 value (hrs).

Assay [4] deals with T2, HLA-A*0201 class I monomer on …. Put plainly: iTopia off-rate assay.
Protocol: as §2
Assay [5] deals with T1, HLA-A*0201 on T2 cells. Put plainly: T2 cell binding assay, flow cytometry. The source holds these as a separate data set.
Assay [6] deals with T1, HLA-A*0201 on T2 cells. Put plainly: T2 cell stability assay, flow cytometry. This is another data set of the same source.
Assay [7] has as its target T1, HLA-A*0201 on T2 cells. Kind of assay: T2 cell binding assay, flow cytometry. This is another data set of the same source.
Assay [8] concerns the target T2, HLA-A*0201 class I monomer on …. Put plainly: iTopia affinity and off-rate assays (FIG. 19).
Protocol: as §1, §2
For assay [9] the target is unchanged. Kind of assay: iTopia assays (FIG. 20).
Assay [10] has the same target. Put plainly: iTopia affinity and off-rate assays (FIG. 28).
Protocol: as §1, §2
(§3) In some cases, the reported values are the average of two determinations.
For assay [11] the target is unchanged. Kind of assay: iTopia assays (FIG. 21).
For assay [12] the target is unchanged. Put plainly: iTopia affinity assay (FIG. 26).
Description: as §1, §3
The target is the same in assay [13]. Kind of assay: iTopia binding assay (FIG. 26).
Description: as §1
(§4) This assay measures the ability of individual peptides to bind HLA molecules under standardized optimal binding conditions. Monomer-coated plates were first stripped, releasing the placeholder peptide and leaving only the MHC heavy chain bound to the plate. Test peptides were then introduced under optimal folding conditions, along with the anti-MHC-FITC mAb. […] The anti-MHC-FITC mAb binds preferentially to a refolded MHC complex. Therefore, the fluorescence intensity resulting from each peptide was related to the peptide's ability to form complex with MHC molecule. Each peptide's binding was evaluated relative to the positive control peptide provided in the kit, and the results were expressed “% binding”.
For assay [14] the target is unchanged. Kind of assay: iTopia binding and affinity assays (FIG. 26).
Description: as §1, §4

Like-named read-outs stand apart in the source and are kept apart here. Numbered stars: 1 amine (or outer) side, 2 acyl side, 3 side chain; on linkers, the order of the positions; unused ones are H or OH. Square brackets hold non-standard residues; d marks the D form. Ends that are not written are not given here. O‑methyltyrosine = COc1ccc(C[C@H](N[*:1])C(=O)[*:2])cc1; Phe(4-F) = N[C@@H](Cc1ccc(F)cc1)C(=O)O; Phg = N[C@H](C(=O)O)c1ccccc1; Nle = CCCC[C@H](N)C(=O)O; Nva = CCC[C@H](N)C(=O)O

B1: SSX2 41-49 (K41(Phg)) (peptide)
peptide: [Phg]ASEKIFYV
For the molecule B1, in the assay with HLA-A*0201 on T2 cells [1], the “Stability (T1/2)” value was greater than 24 h. In addition, in the assay with HLA-A*0201 on T2 cells [2], the EC50 worked out at 5.83 µM and the “Relative affinity (1/RA)” value turned out to be 2.5.

B2: PSMA288-297 analog with Ala at P1, Nle at P2 and Trp at P3 (peptide)
peptide: A[Nle]WSIPVHPI
As to B2, the binding result in assay [3] is reported as “binds”.

B3: NY-ESO-1 157-165 (L158Nva, C165V) (peptide)
peptide: S[Nva]LMWITQV
notes: also called SNvaLMWITQV
Consider B3, for which the “Half-Life (T1/2)” value in assay [4] is 17 h.

B4: SSX2 41-49 (A42I) (peptide)
peptide: KISEKIFYV
For the molecule B4, in the assay with HLA-A*0201 on T2 cells [5], a half-maximal effect (EC50) was put at 8.8 µM and the “Relative affinity (1/RA)” value came out at 1.7. Besides, the “Stability (T1/2)” value in the assay with HLA-A*0201 on T2 cells [6] stood at 22.5 h.

B5: SSX2 41-49 (A42V, V49I) (peptide)
peptide: KVSEKIFYI
As for B5, the “Relative affinity (1/RA)” value with HLA-A*0201 on T2 cells [7] is 1.1.

B6: SSX2 41-49 (V49I) (peptide)
peptide: KASEKIFYI
As for B6, the “Relative affinity (1/RA)” value with HLA-A*0201 on T2 cells [7] was 1.

B7: SSX2 41-49 (K41Y) (peptide)
peptide: YASEKIFYV
On to B7, for which the “Stability (T1/2)” value with HLA-A*0201 on T2 cells [1] is greater than 24 h. Further, in the assay with HLA-A*0201 on T2 cells [2], the EC50 was 8.74 µM and the “Relative affinity (1/RA)” value was 1.7.

B8: SSX2 41-49 (A42M) (peptide)
peptide: KMSEKIFYV
In the case of B8, in the assay with HLA-A*0201 on T2 cells [5], a half-maximal effect (EC50) was put at 8.8 µM and the “Relative affinity (1/RA)” value worked out at 1.7. For the same molecule, in the assay with HLA-A*0201 on T2 cells [6], the “Stability (T1/2)” value is 22.5 h.

B9: SSX2 41-49 (A42L, V49I) (peptide)
peptide: KLSEKIFYI
In the case of B9, the “Relative affinity (1/RA)” value with HLA-A*0201 on T2 cells [7] is 2.6.

B10: SSX2 41-49 (K41F) (peptide)
peptide: FASEKIFYV
On to B10, for which, in the assay with HLA-A*0201 on T2 cells [1], the “Stability (T1/2)” value is greater than 24 h. In addition, in the assay with HLA-A*0201 on T2 cells [2], it took 9.55 µM to reach a half-maximal effect (EC50) and the “Relative affinity (1/RA)” value was 1.5.

B11: PSMA288-297 analog with Nva at PΩ (peptide)
peptide: GLPSIPVHPX
modifications: norvaline (Nva) at PΩ (P10)
notes: also called I297Nva
B11: the binding result in [8] is “binds”.

B12: PSMA288-297 analog with Trp at P3 and Nva at PΩ (peptide)
peptide: GLWSIPVHP[Nva]
As for B12, the binding result in assay [9] is listed as “binds”.

B13: PSMA288-297 analog with Ala at P1, Val at P2 and Nva at PΩ (peptide)
peptide: AVPSIPVHP[Nva]
With B13, the binding result in [3] is given as “binds”.

B14: Prame 425-433 (L426Nva, L433Nle) (peptide)
peptide: S[Nva]LQHLIG[Nle]
notes: also called S{Nva}LQHLIG{Nle}; L426Nva L433Nle analog
As to B14, in assay [4], the “Half-Life (T1/2)” value amounted to 16.9 h.

B15: PRAME425-433 S425T L426Nva L433Nle analog (peptide)
peptide: T[Nva]LQHLIG[Nle]
notes: also called T{Nva}LQHLIG{Nle}
With B15, the binding result in assay [10] is recorded as “binds”.

B16: PSMA288-297 analog with Met at P2 (peptide)
peptide: GMPSIPVHPI
As to B16, the binding result in assay [8] is reported as “binds”.

B17: PSMA288-297 analog with Trp at P3 and Val at PΩ (peptide)
peptide: GLWSIPVHPV
With B17, the binding result in assay [9] is reported as “binds”.

B18: Tyrosinase 369-377 (peptide)
peptide: YMDGTMSQV
As to B18, the “Half-Life (T1/2)” value in assay [4] was 14.4 h.

B19: Tyrosinase 369-377 (V377Nva) (peptide)
peptide: YMDGTMSQX
modifications: norvaline (Nva) at position 377 (P9)
On to B19, for which the “Half-Life (T1/2)” value in [4] came to 14.7 h.

B20: SSX2 41-49 (K41(Phe-4F)) (peptide)
peptide: [Phe(4-F)]ASEKIFYV
For B20, in the assay with HLA-A*0201 on T2 cells [1], the “Stability (T1/2)” value is greater than 24 h.

B21: PSMA288-297 Nva/W/V analog (Nva at P2, Trp at P3, Val at PΩ) (peptide)
peptide: G[Nva]WSIPVHPV
For B21, the binding result in assay [11] was “binds”.

B22: PSMA288-297 analog with Ala at P1, Nva at P2 and Trp at P3 (peptide)
peptide: A[Nva]WSIPVHPI
B22: the binding result in [3] is “binds”.

B23: SSX2 41-49 (K41(O-methyl Tyr)) (peptide)
peptide: [O‑methyltyrosine]ASEKIFYV
For B23, the “Stability (T1/2)” value with HLA-A*0201 on T2 cells [1] was 20 h. In the assay with HLA-A*0201 on T2 cells [2], the EC50 was 19.5 µM and the “Relative affinity (1/RA)” value worked out at 0.8.

B24: PRAME425-433 analog with Ala at PΩ (peptide)
peptide: SLLQHLIGA
For the molecule B24, the “fold change of ED50 against the native peptide” value in assay [12] is greater than 10 fold.

B25: PRAME425-433 analog with Ile at PΩ (peptide)
peptide: SLLQHLIGI
Turning to B25, the binding result in [13] is given as “binds”.

B26: PRAME425-433 analog with Thr at P1 (peptide)
peptide: TLLQHLIGL
B26: the binding result in assay [14] is on record as “binds”.

B27: PRAME425-433 analog with Val at PΩ (peptide)
peptide: SLLQHLIGV
For B27, the binding result in assay [13] was “binds”.

B28: PRAME425-433 analog with Lys at P1 (peptide)
peptide: KLLQHLIGL
notes: also called Lys P1 analog
For B28, the “fold change of ED50 against the native peptide” value in assay [12] was roughly 6 fold.

B29: PRAME425-433 analog with Met at P2 (peptide)
peptide: SMLQHLIGL
For B29, the binding result in assay [14] is “binds”.

B30: PRAME425-433 analog with Ile at P2 (peptide)
peptide: SILQHLIGL
With B30, the binding result in assay [14] is “binds”.

B31: PRAME425-433 analog with Tyr at P1 (peptide)
peptide: YLLQHLIGL
On to B31, for which, in assay [14], the binding result is “binds”.

B32: PRAME425-433 analog with Val at P2 (peptide)
peptide: SVLQHLIGL
As for B32, in assay [13], the binding result is reported as “binds”.
